Results: patent US20240343817A1 (STAIDSON BEIJING BIOPHARMACEUTICALS, published 2024)

T1: human TNFRSF11A (human, UniProt Q9Y6Q6 30-212)
T1 construct: Bought protein coated on the ELISA plate; also called TNFRSF11A (Sino biological, 16078-h08h)
T1 sequence (looked up): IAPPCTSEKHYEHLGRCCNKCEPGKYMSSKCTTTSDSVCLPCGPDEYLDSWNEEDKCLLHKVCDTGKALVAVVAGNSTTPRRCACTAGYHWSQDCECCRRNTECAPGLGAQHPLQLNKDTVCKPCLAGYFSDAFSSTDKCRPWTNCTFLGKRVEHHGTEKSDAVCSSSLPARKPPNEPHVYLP

T2: human TNFR2 (human, UniProt P20333 23-257)
T2 construct: Bought protein coated on the ELISA plate; also called TNFR2 (Sino biological, 10417-h08h); INFR2
T2 sequence (looked up): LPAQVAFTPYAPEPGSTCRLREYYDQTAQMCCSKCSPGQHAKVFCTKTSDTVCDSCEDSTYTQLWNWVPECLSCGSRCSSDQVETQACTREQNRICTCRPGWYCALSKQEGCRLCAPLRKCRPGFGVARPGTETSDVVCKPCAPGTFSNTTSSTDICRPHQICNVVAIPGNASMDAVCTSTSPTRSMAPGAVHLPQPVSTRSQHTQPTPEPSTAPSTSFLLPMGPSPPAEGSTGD

B1: D5 (antibody, V domains shown)
VH: EVQLQQSGAELVSPGVSVKISCKGSGYTFTDHGMHWVKQSHAKSLEWIGVISTSYGVATYNQKFKGKATLSVDKSSSTAYLELARLTSEDSAIYYCARRDSKSPFDYWGQGTTLTVSS
VL: QIVLTQSPAIMSASPGEKITITCSASSSISSNYLHWYQQKPGFSPKLLIYRTSNLASGVPARFSGSGSGTSYSLTISSMEAEDAATYYCHQYHRSPLTFGAGTKLELK
notes: Full-length chimeric antibody: mouse variable domains with a human IgG1 or IgG4 heavy chain constant domain and a human kappa light chain constant domain; also called anti-CD40 antibody D5
B2: D1 (antibody, V domains shown)
VH: EVQLQQSGPDLVKPGASMKISCKASVYSFTGYTVNWVKQSHGKSLEWIGLINPYNGGTTYNQKFKGKATLTIDKSSTTAYMELLSLTSEDSAVYYCASSYYSNPYAMDYWGQGTSVTVSS
VL: DIVLNQSQKFMSTSVGDRVSITCKASQNVHTAVAWYQQKPGQSPKALIYLASDRRTGIPDRFTGSGSGTDFTLTIDNVQSEDLADYFCLQHWNYPLTFGAGTKLELK
notes: Full-length chimeric antibody: mouse variable domains with a human IgG1 or IgG4 heavy chain constant domain and a human kappa light chain constant domain; also called anti-CD40 antibody D1; mouse antibody D1
B3: D42 (antibody, V domains shown)
VH: QVQLVQSGAEVKKPGASVKVSCKASVYSFTGYTVNWVRQAPGQRLEWMGLIVPYNGGTTYNQKFKGRVTLTIDKSASTAYMELSSLRSEDTAVYYCASSRYSNPYAMDYWGQGTLVTVSS
VL: EIVMTQSPATLSVSPGERATLSCKASQNVHTRVAWYQQKPGQAPRLLIYLASDRRTGIPARFSGSGSGTEFTLTISSLQSEDFAVYYCLQHWNYPLTFGQGTKVEIK
notes: also called optimized anti-CD40 antibody D42
B4: D47 (antibody, human IgG4, V domains shown)
VH: QVQLVQSGAEVKKPGASVKVSCKASVYSFTGYTVNWVRQAPGQRLEWMGLINPYTGGTTYNQKFKGRVTLTIDKSASTAYMELSSLRSEDTAVYYCASSYYSNPYASDYWGQGTLVTVSS
VL: EIVMTQSPATLSVSPGERATLSCKASQNVHTRVAWYQQKPGQAPRLLIYLASDRRTGIPARFSGSGSGTEFTLTISSLQSEDFAVYYCLQHWTYPLTFGQGTKVEIK
notes: also called optimized anti-CD40 antibody D47
B5: D49 (antibody, human IgG4, V domains shown)
VH: QVQLVQSGAEVKKPGASVKVSCKASVYSFTGYTVNWVRQAPGQRLEWMGLINPYNGGTSYNQKFKGRVTLTIDKSASTAYMELSSLRSEDTAVYYCASSPYSNPYAMDYWGQGTLVTVSS
VL: EIVMTQSPATLSVSPGERATLSCKASQNVHTRVAWYQQKPGQAPRLLIYLASDRRTGIPARFSGSGSGTEFTLTISSLQSEDFAVYYCLQHWTYPLTFGQGTKVEIK
notes: also called optimized anti-CD40 antibody D49
B6: D2 (antibody, V domains shown)
VH: EVHVKQSGAELVKPGASVKLSCTASGFNIKDAYMHWVKQRPEQGLEWIGRIDPANGNTKYDPKFQGKASITTDTSSNTAYLQLSSLTSEDTAVYYCTPNYYGSRYPFAYWGQGTTVTVSS
VL: DIVLTQSPAIMSASPGEKVSITCSASSSVSYMHWFQQKPGTSPKLWIYSTSNLASGVPARFSGSGSGTSYSLTISRMEADDAATYYCQQGSSYPLTFGAGTKLELK
notes: Full-length chimeric antibody: mouse variable domains with a human IgG1 or IgG4 heavy chain constant domain and a human kappa light chain constant domain; also called anti-CD40 antibody D2
B7: D3 (antibody, V domains shown)
VH: EVQLQQSGAELVKPGASVKLSCTASGFNIKDSYMHWVKQRPEQGLEWIGRIDPANGNTKYDPKFQGKATITADTSSNTAYLQLSSLTSEDTAVYYCVPNYYGAAYPFAYWGQGTTVTVSS
VL: DIVLIQSPAIMSASPGEKVTITCSASSSVSYMHWFQQKPGTSPKVWIYSTSNLASGVPARFGGSGSGTSYSLTISRMEAEDAATYYCQQGSSYPLTFGAGTKLELK
notes: Full-length chimeric antibody: mouse variable domains with a human IgG1 or IgG4 heavy chain constant domain and a human kappa light chain constant domain; also called anti-CD40 antibody D3
B8: D7 (antibody, V domains shown)
VH: QIQLLQSGAELVKPGASVKLSCTASGFNIKDAYMHWVKQRPEQGLEWIGRIDPANGYTKSDPKFQGKATITSDTSSNTAYLQLSSLTSEDTAVYYCAPNYYGSRYPFAYWGQGTLVTVSS
VL: QIVLTQSPAIMSASPGEKVTITCSASSSVSYMHWFQQKPGTSPKIWIYFTSNLASGVPARFSGSGSGTSYSLTISRMEAEDAATYYCQQGSTYPLTFGAGTKLELK
notes: Full-length chimeric antibody: mouse variable domains with a human IgG1 or IgG4 heavy chain constant domain and a human kappa light chain constant domain; also called anti-CD40 antibody D7
B9: D6 (antibody, V domains shown)
VH: QVQLQQSGAELVRPGVSVKISCKGSGYTFTDHAIHWVKQSHARRLEWIGAISTNYGAATYNQKFKGKATMTVDKSSSTAYMELARLTSEDSAIYYCARRGSHGDWFAYWGQGTLVTVSA
VL: DIELTQSPAIMSASPGEKVTITCSASSSVSYMHWFQQKPGTSPKLWIYSTSNLASGVPVRFSGSGSGTSYSLTISSMEAEDAATYYCHQYHRSPLTFGAGTKLELK
notes: Full-length chimeric antibody: mouse variable domains with a human IgG1 or IgG4 heavy chain constant domain and a human kappa light chain constant domain; also called anti-CD40 antibody D6

Tests used:
human CD40 on cells [1] = molecular target: T3, human CD40 on cells (human, UniProt P25942 21-277); assay: cell-based or functional assay
T3 sequence (P25942 21-277 limits assumed): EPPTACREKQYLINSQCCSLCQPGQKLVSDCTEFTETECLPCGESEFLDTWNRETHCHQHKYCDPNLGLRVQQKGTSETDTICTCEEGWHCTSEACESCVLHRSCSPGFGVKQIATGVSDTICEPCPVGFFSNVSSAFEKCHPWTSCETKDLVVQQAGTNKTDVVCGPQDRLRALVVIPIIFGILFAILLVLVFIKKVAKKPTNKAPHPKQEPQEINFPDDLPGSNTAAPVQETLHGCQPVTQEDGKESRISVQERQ

[2] = molecular target: T4, human CD40 extracellular domain (recombinant) (human, UniProt P25942 21-193); assay: ELISA; CD40 extracellular domain coated 0.1 µg/well, antibody titrated from 10 µg/mL 1:3, anti-human IgG-HRP
T4 construct: Extracellular domain expressed in 293F cells; also called hCD40; CD40-His; not shown: tag (His, Avi-His, mouse Fc or human Fc)
T4 sequence (P25942 21-193): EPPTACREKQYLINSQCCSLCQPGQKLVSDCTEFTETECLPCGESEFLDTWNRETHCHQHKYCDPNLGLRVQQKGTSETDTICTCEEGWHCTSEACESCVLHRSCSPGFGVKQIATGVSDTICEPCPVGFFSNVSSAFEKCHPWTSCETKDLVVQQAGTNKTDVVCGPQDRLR
Experimental: (§1) ELISA Binding Assay: The selected monoclonal full-length antibodies D1, D2, D3, D5, D6, or D7 were subjected to binding assays with CD40 extracellular domain of different species, respectively. The assay was designed to identify full-length antibodies that cross-reacted with CD40 of different species. Briefly, the human or Rhesus monkey CD40 prepared in example 1 was dissolved in PBS and coated on […] with 0.1 μg/well followed by incubation at 4° C. overnight. The 96-well plates were washed with TBST before adding antibodies, blocked with 5% milk for 1-2 h at 37° C., and washed again with TBST. Firstly, each antibody sample was diluted to 10 μg/mL, and then serially diluted at a 1:3 ratio. 100 μL of serially diluted antibodies were added to each well and incubated for 1 h at 37° C. After washing with TBST for 6 times, 100 μL of the secondary antibody (goat anti-human IgG-HRP (Sigma. A8667)) was added to each well and incubated for 1 h at 37° C. After washing with TBST for 3 times, TMB was added with 100 μL/well and incubated for 10-20 minutes at 37° C. 2M H₂SO₄ was used to stop the reaction and plates were read for the absorbance at 450 nm. The ELISA results were then analyzed and the binding curves were generated by PRISM.

[3] = molecular target: T5, Rhesus monkey CD40 extracellular domain (recombinant) (Rhesus monkey, UniProt F6SNI1 21-193); assay: as above
T5 construct: extracellular domain; also called RheCD40
Experimental: as §1

human CD40 on cells [4] = molecular target: T3, human CD40 on cells; assay: cell-based or functional assay; remark: listed apart in the source
human TNFRSF11A = molecular target: T1, human TNFRSF11A; assay: ELISA; protein coated, antibody titrated, anti-human IgG-HRP
Experimental: (§2) The cross-reactivities between anti-CD40 antibodies and the protein homologous with CD40 were detected. It was well known that there is high sequence homology among TNFR superfamily members. When compared with CD40 sequence. TNFRSF11A (38.95% homology) and INFR2 (37.20% homology) are with the highest homology. The cross-reactions between the two proteins and anti-CD40 antibody were detected by ELISA. respectively. Briefly, human TNFRSF11A (Sino biological, 16078-h08h), human TNFR2 (Sino biological, 10417-h08h) or the human CD40 extracellular domain protein prepared in example 1 was coated on ELISA plate and incubated at 4° C. overnight, respectively. After serial dilution, the optimized full-length anti-CD40 antibodies were added into 96 well plates and incubated respectively. After washing with TBST solution, the anti-human IgG-HRP antibody was added and incubated at RT. After washing with PBST, TMB was added into each well for development. Plates were read for the absorbance at 450 nm.

human TNFR2 = molecular target: T2, human TNFR2; assay: as above
Experimental: as §2

[5] = molecular target: T4, human CD40 extracellular domain …; assay: SPR, Biacore 8K; antibody on CM5 chip, hCD40 at various concentrations
Experimental: The binding affinity of the optimized anti-CD40 antibodies with human […] was characterized using Biacore 8K (GE). Anti-CD4 (antibodies were stabilized on sensor chip CM5 The affinities for hCD40 at various concentrations were measured. Using the SPR technology, the association and dissociation rates were measured, and binding affinity was determined.

[6] = molecular target: T4, human CD40 extracellular domain …; assay: ELISA, plate coated with recombinant human CD40 extracellular domain, antibody (human IgG4 format) in serial dilution, anti-human IgG-HRP, OD450
Experimental: as §1
(§3) The biding affinity of the optimized full length CD40 antibodies with human or rhesus monkey CD40 was evaluated by Elisa according to the corresponding protocol as described in Example 2, and ASKP1240 was used as control.

[7] = molecular target: T5, Rhesus monkey CD40 extracellular domain …; assay: ELISA, plate coated with recombinant rhesus monkey CD40 extracellular domain, antibody (human IgG4 format) in serial dilution, anti-human IgG-HRP, OD450
Experimental: as §1, §3

| Binder | IC50, HEK-Blue CD40L NF-κB activation assay (SEAP), Fc-3*G4S-CD40L stimulus (human CD40 on cells [1]) [µg/mL] | EC50 [2] [µg/mL] | EC50 [3] [µg/mL] | IC50, HEK-Blue CD40L NF-κB activation assay (SEAP), antibody as human IgG4 (human CD40 on cells [4]) [µg/mL] | binding result (human TNFRSF11A) | binding result (human TNFR2) | Kd [5] [nM] | koff [5] [s⁻¹] | kon [5] [M⁻¹ s⁻¹] | EC50 (read off the curve) [6] [µg/mL] | EC50 (read off the curve) [7] [µg/mL] |
| --- | --- | --- | --- | --- | --- | --- | --- | --- | --- | --- | --- |
| B1 | 0.0142 | 0.274 | 0.627 |  |  |  |  |  |  |  |  |
| B2 | 0.0215 | 0.236 | 0.227 |  |  |  |  |  |  |  |  |
| B3 |  |  |  | 0.00962 | no binding (tested: 10 µg/mL) | no binding (tested: 10 µg/mL) | 1.26 | 0.000277 | 221000 | ~0.2 | ~0.1 |
| B4 |  |  |  | 0.0114 | no binding (tested: 10 µg/mL) | no binding (tested: 10 µg/mL) | 1.59 | 0.000303 | 191000 | ~0.2 | ~0.1 |
| B5 |  |  |  | 0.0112 |  |  | 1.5 | 0.000295 | 196000 | ~0.2 | ~0.1 |
| B6 | 0.0171 | 0.193 | 0.473 |  |  |  |  |  |  |  |  |
| B7 | 0.0224 | 0.224 | 0.0743 |  |  |  |  |  |  |  |  |
| B8 | 0.017 | 0.261 | 0.133 |  |  |  |  |  |  |  |  |
| B9 | 0.00712 | 0.176 | 0.243 |  |  |  |  |  |  |  |  |
